The values that follow come from article doi:10.1101/2023.04.20.537738 (bioRxiv, 2023).

This test addresses SARS-CoV-2 HexaPro Spike (SARS-CoV-2, WA-1 / Wuhan-Hu-1 …, UniProt P0DTC2, stabilised, N-linked glycans (built in the model)). Description: cryo-EM structure.

B1: STI-9167 Fab (therapeutically-modified version of FG-10A3) (Fab, V domains shown)
VH: QVQLVESGGGVVQPGRSLRLSCAASGFTFSSYGMNWVRQAPGKGLEWVAIIWYYGNNKYYVDSVKGRFTISRDNSKNTLYLQMNSLRAEDTAVYYCARKDYSKTYYGYYFDYWGQGTLVTVSS
VL: DIQMTQSPSSLSASVGDRVTITCRASQSIHSFLNWYQQKPGKPPNLLIYAASSLQSGLPSRFSGSGSGTDFTLTISSLQPEDFATYYCQQSYITPPTFGQGTKVEIK
On to B1, for which the binding result was “binds”.
